From publication PMC2120109 (The Journal of Cell Biology, 1994)
Where a chain is given by its changes, count along the chain named. Numbers in names are those of the source.

B1: NSF K266A mutant with His6 at the amino terminus and a myc epitope at the carboxy terminus (natural protein, UniProt P18708 1-744, looked up)
chain: MAGRSMQAARCPTDELSLSNCAVVSEKDYQSGQHVIVRTSPNHKYIFTLRTHPSVVPGSVAFSLPQRKWAGLSIGQEIEVALYSFDKAKQCIGTMTIEIDFLQKKNIDSNPYDTDKMAAEFIQQFNNQAFSVGQQLVFSFNDKLFGLLVKDIEAMDPSILKGEPASGKRQKIEVGLVVGNSQVAFEKAENSSLNLIGKAKTKENRQSIINPDWNFEKMGIGGLDKEFSDIFRRAFASRVFPPEIVEQMGCKHVKGILLYGPPGCGATLLARQIGKMLNAREPKVVNGPEILNKYVGESEANIRKLFADAEEEQRRLGANSGLHIIIFDEIDAICKQRGSMAGSTGVHDTVVNQLLSKIDGVEQLNNILVIGMTNRPDLIDEALLRPGRLEVKMEIGLPDEKGRLQILHIHTARMRGHQLLSADVDIKELAVETKNFSGAELEGLVRAAQSTAMNRHIKASTKVEVDMEKAESLQVTRGDFLASLENDIKPAFGTNQEDYASYIMNGIIKWGDPVTRVLDDGELLVQQTKNSDRTPLVSVLLEGPPHSGKTALAAKIAEESNFPFIKICSPDKMIGFSETAKCQAMKKIFDDAYKSQLSCVVVDDIERLLDYVPIGPRFSNLVLQALLVLLKKAPPQGRKLLIIGTTSRKDVLQEMEMLNAFSTTIHVPNIATGEQLLEALELLGNFKDKERTTIAQQVKGKKVWIGIKKLLMLIEMSLQMDPEYRVRKFLALLREEGASPLDFD
B2: NSF D604Q mutant (natural protein, UniProt P18708 1-744, looked up)
chain: B1 chain with A266K, D604Q
B3: NSF E329Q mutant (natural protein, UniProt P18708 1-744, looked up)
chain: B1 chain with A266K, E329Q
B4: NSF K549A mutant (natural protein, UniProt P18708 1-744, looked up)
chain: B1 chain with A266K, K549A
B5: NSF double hydrolysis mutant E329/D604Q (natural protein, UniProt P18708 1-744, looked up)
chain: B1 chain with A266K, E329Q, D604Q

Target: the molecule itself
Test: SEC

Binding result, binds:
B1
B2
B3
B4
B5
